How the values were obtained:
P. gingivalis DPP-7 = test: Endopeptidase activity of DPP-7 on protein substrates and plasma inhibitors; assay type: biochemical, Porphyromonas gingivalis
[1] = pH optimum and stability of purified DPP-7 (activity against H-Ala-Phe-pNA); assay type: biochemical, Porphyromonas gingivalis
Protocol: Kinetic Analysis—Routinely, the dipeptidylpeptidase amidolytic activity was measured with H-Ala-Phe-pNA (1 mM) in 0.2 M HEPES, pH 7.8 at 37° C. The reaction was followed for specific time intervals in a thermostated ELISA reader (SpectraMax, Applied Biosystem) and the release of p-nitroaniline was monitored at 405 nm. Other p-nitroanilide substrates were used in the same manner. For inhibition studies, the enzyme was first preincubated with an inhibitor for 15 minutes at 37° C., substrate added, and residual activity recorded. The initial steady-state velocity (v0) was determined by continuous assay for the range of substrate concentrations (100 nM to 1 mM). Km and Vmax were determined by hyperbolic regression of the kinetic data using the software package Hyper Version 1.02 obtained from Dr. J. S. Easterby (University of Liverpool, UK).
pH Optimum and Stability—Purified DPP-7 was active against H-Ala-Phe-pNA over a broad pH range, from neutral to basic pH (6.5-9.0) (FIG. 3). This activity also changed with the ionic strength of the buffer, reaching 200% at 0.5 M NaCl concentration in 100 mM HEPES, pH 8.0. DPP-7 was stable in 0.2 M HEPES, pH 8.0, for one week at 4° C. […] After 3 hours incubation at either room temperature or 37° C., activity was reduced to 62% and 20%, respectively. The optimum temperature for the hydrolysis of H-Ala-Phe-pNA was determined to be 43° C.

## gelatin
P. gingivalis DPP-7
  endopeptidase activity of DPP-7 on protein substrate: did not show any endopeptidase activity

## insulin β chain
P. gingivalis DPP-7
  endopeptidase activity of DPP-7 on protein substrate: did not show any endopeptidase activity

B1: DPP-7: P. gingivalis dipeptidylpeptidase-7, a 76 kDa serine protease purified from the membrane fraction (protein, listed as Porphyromonas gingivalis)
chain: MQMKLKSILLGAALLLGASGVAKADKGMWLLNELNQENLDRMRELGFTLPLDSLYSFDKPSIANAVVIFGGGCTGITVSDQGLIFTNHHCGYGAIQSQSTVDHDYLRDGFVSRTMGEELPIPGLSVKYLRKIVKVTDKVEGQLKGITDEMERLRKAQEVCQELAKKENADENQLCIVEPFYSNNEYFLIVYDVFKDVRMVFAPPSSVGKFGGDTDNWMWPRHTGDFSVFRVYAGADNRPAEYSKDNKPYKPVYFAAVSMQGYKADDYAMTIGFPGSTDRYLTSWGVEDRIENENNPRIEVRGIKQGIWKEAMSADQATRIKYASKYAQSANYWKNSIGMNRGLARLDVIGRKRAEERAFADWIRKNGKSAVYGDVLSSLEKAYKEGAKANREMTYLSETLFGGTEVVRFAQFANALATNPDAHAGILKSLDDKYKDYLPSLDRKVLPAMLDIVRRRIPADKLPDIFKNVIDKKFKGDTKKYADFVFDKSVVPYSDKFHAMLKSMDKEKFAKAIEKDPAVELSKSVIAAARAIQADAMANAYAIEKGKRLFFAGLREMYPGRALPSDANFTMRMSYGSIKGYEPQDGAWYNYHTTGKGVLEKQDPKSDEFAVQENILDLFRTKNYGRYAENGQLHIAFLSNNDITGGNSGSPVFDKNGRLIGLAFDGNWEAMSGDIEFEPDLQRTISVDIRYVLFMIDKWGQCPRLIQELKLI
[1]
  optimum temperature for the hydrolysis of H-Ala-Phe-pNA: 43 °C
[1]; 0.2 M HEPES, pH 8.0, one week at 4° C.
  stability: stable
[1]; 0.5 M NaCl in 100 mM HEPES, pH 8.0
  activity with ionic strength of the buffer: 200%
[1]; 3 hours at 37° C.
  activity remaining after incubation: 20%
[1]; 3 hours at room temperature
  activity remaining after incubation: 62%
[1]; kept frozen at −80° C. for one month
  stability, loss of activity: no appreciable loss of activity

— US6864363B2 (priority 2000, dated 2005)
